This note sets out measurements from PMC8280819 (The EMBO Journal, 2021).

One data set deals with T1, His-AosR (Mycobacterium tuberculosis H37Rv, UniProt P9WM25 1-218).
T1 sequence: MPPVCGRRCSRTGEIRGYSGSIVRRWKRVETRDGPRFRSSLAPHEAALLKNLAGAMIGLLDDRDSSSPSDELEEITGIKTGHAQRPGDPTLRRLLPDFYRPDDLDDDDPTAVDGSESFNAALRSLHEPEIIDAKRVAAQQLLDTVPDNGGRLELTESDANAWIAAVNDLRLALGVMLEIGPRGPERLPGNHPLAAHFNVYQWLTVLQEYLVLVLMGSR
Briefly: EMSA. A general note: In EMSA bound probe runs differently from free probe, usually more slowly.

For a further data set, the target named is His-SigH (Mycobacterium tuberculosis H37Rv, UniProt P9WGH9 1-216). Nature of the data set: EMSA.
His-SigH, sequence (P9WGH9 whole entry): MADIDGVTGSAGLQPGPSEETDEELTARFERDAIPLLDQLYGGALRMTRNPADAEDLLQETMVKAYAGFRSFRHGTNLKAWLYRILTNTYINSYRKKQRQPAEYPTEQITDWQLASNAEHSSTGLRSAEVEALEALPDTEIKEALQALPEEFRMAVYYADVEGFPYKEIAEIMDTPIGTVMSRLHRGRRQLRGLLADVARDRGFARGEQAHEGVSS

B1: 100 bp upstream of mec (intragenic auxiliary promoter) (dsDNA)
DNA 1: AGTCGTGCGGTGCTGGCCGGCGTGCTCAATGCTCAGCCGGTAGCCGGAATACCGACCTACCGTGACATGTTTTCCCGGAGCATTCGGGTCTTGAAACTCA
DNA 2: TATGAGTTTCAGGACCCGAATGCTCCCCGGGAAACATGTCACGGTAGGTCGGTATTCCGGCTACCGGCTGAGCATTGAGCACGCCGGCCAGCCACCGCACGACT
Take B1: the binding result with His-AosR and with His-SigH was “binds” each time.
